Bridges are numbered along the chain shown (N, C = ends). Primed or numbered codes have the meaning given here. [ ]: non-standard residue; d: D form. Ygp(4) = Tyr with amino-capped PEG8 (O-(8x polyethylene glycol-amino)-tyrosine); Yn3(4) = Tyr with azide-capped PEG9 (O-(9x polyethylene glycol-azido)-tyrosine); Ygp = O-(8x polyethylene glycol-amino)-tyrosine (Tyr, amino-capped PEG8); Yn3 = O-(9x polyethylene glycol-azido)-tyrosine (Tyr, azide-capped PEG9); Ygp(3) = O-(PEG8-amino)-tyrosine; Yn3(3) = O-(PEG9-azido)-tyrosine; PEG4′ = 4x polyethylene glycol; PEG9′ = 9x polyethylene glycol; hSer = N[C@@H](CCO)C(=O)O; Nle = CCCC[C@H](N)C(=O)O
B1: CMP-168 (ligand)
chain: APTSSSTKKTQLQLEHLLLDLQEILNGINNYKNPKLTR[Nle]L[hSer][Yn3(4)]KF[Ygp(4)][Nle]PKKATELKHLQCLEEELKPLEEVL[hSer]LAQSKNFHLRPRDLISNINVIVLELKGSETTF[hSer]CEYADETATIVEFLNRWITFSQSIISTLT
modifications: bridge 9-23; not fully specified (bridges); ends not checked; also: sequence of the cleavable bridging peptide not given here
B2: CMP-300, MMP2 cleaved molecule (ligand)
chain: APTSSSTKKTQLQLEHLLLDLQEILNGINNYKNPKLTR[Nle]L[hSer][Yn3(4)]KF[Ygp(4)][Nle]PKKATELKHLQCLEEELKPLEEVL[hSer]LAQSKNFHLRPRDLISNINVIVLELKGSETTF[hSer]CEYADETATIVEFLNRWITFSQSIISTLT
modifications: not fully specified; ends and bridges not checked; also: cleaved by MMP2, product not given here, N-terminus linked to another sequence via PEG4, Glu23 side chain linked to another sequence
B3: CMP-300 (ligand)
chain: GPLGLAG[PEG4′]APTSSSTKKTQLQLEHLLLDLQEILNGINNYKNPKLTR[Nle]L[hSer][Yn3(4)]KF[Ygp(4)][Nle]PKKATELKHLQCLEEELKPLEEVL[hSer]LAQSKNFHLRPRDLISNINVIVLELKGSETTF[hSer]CEYADETATIVEFLNRWITFSQSIISTLT
modifications: lactam N-31; ends not checked
B4: CMP-168, MMP2 cleaved molecule (ligand)
chain: APTSSSTKKTQLQLEHLLLDLQEILNGINNYKNPKLTR[Nle]L[hSer][Yn3(4)]KF[Ygp(4)][Nle]PKKATELKHLQCLEEELKPLEEVL[hSer]LAQSKNFHLRPRDLISNINVIVLELKGSETTF[hSer]CEYADETATIVEFLNRWITFSQSIISTLT
modifications: not fully specified; ends and bridges not checked; also: MMP2 cleaved, cleavage site and linker fragments on Lys9 and Glu23 side chains not given here
B5: CMP-305, MMP2 cleaved molecule (ligand)
chain: APTSSSTKKTQLQLEHLLLDLQKILNGINNYKNPKLTR[Nle]L[hSer][Yn3]KF[Ygp][Nle]PKKATELKHLQCLEEELKPLEEVL[hSer]LAQSKNFHLRPRDLISNINVIVLELKGSETTF[hSer]CEYADETATIVEFLNRWITFSQSIISTLT
modifications: also: m29 after MMP2 cleavage: Glu15-Lys23 cleavable peptide bridge cut, remnants on Glu15 and Lys23 not given here
B6: CMP-303 (ligand)
chain: PLGLAGAPTSSSTKKTQLQLEHLLLDLQEILNGINNYKNPKLTR[Nle]L[hSer][Yn3(4)]KF[Ygp(4)][Nle]PKKATELKHLQCLEEELKPLEEVL[hSer]LAQSKNFHLRPRDLISNINVIVLELKGSETTF[hSer]CEYADETATIVEFLNRWITFSQSIISTLT
modifications: bridge N-29; not fully specified (N-terminus, bridges); ends not checked
B7: CMP-305 (ligand)
chain: APTSSSTKKTQLQLEHLLLDLQKILNGINNYKNPKLTR[Nle]L[hSer][Yn3]KF[Ygp][Nle]PKKATELKHLQCLEEELKPLEEVL[hSer]LAQSKNFHLRPRDLISNINVIVLELKGSETTF[hSer]CEYADETATIVEFLNRWITFSQSIISTLT
modifications: bridge 15-23; not fully specified (bridges); also: further groups not given here
B8: CMP-302 (ligand)
chain: GPLGLAGAPTSSSTKKTQLQLEHLLLDLQEILNGINNYKNPKLTR[Nle]L[hSer][Yn3(4)]KF[Ygp(4)][Nle]PKKATELKHLQCLEEELKPLEEVL[hSer]LAQSKNFHLRPRDLISNINVIVLELKGSETTF[hSer]CEYADETATIVEFLNRWITFSQSIISTLT
modifications: lactam N-30; ends not checked
B9: CMP-304 (ligand)
chain: PLGLAGAPTSSSTKKTQLQLEHLLLDLQEILNGINNYKNPKLTR[Nle]L[hSer][Yn3(4)]KF[Ygp(4)][Nle]PKKATELKHLQCLEEELKPLEEVL[hSer]LAQSKNFHLRPRDLISNINVIVLELKGSETTF[hSer]CEYADETATIVEFLNRWITFSQSIISTLT
modifications: bridge N-29; not fully specified (N-terminus, bridges); ends not checked
B10: CMP-136 (ligand)
chain: [PEG9′]PLGLAG[PEG9′]APTSSSTKKTQLQLEHLLLDLQ[Nle]ILNGIENYKNPKLTR[Nle]L[hSer][Yn3]KF[Ygp][Nle]PKKATELKHLQCLEEELKPLEEVL[hSer]LAQSKNFHLRPRDLISNINVIVLELKGSETTF[hSer]CEYADETATIVEFLNRWITFSQSIISTLT
modifications: bridge N-37; not fully specified (bridges)
B11: CMP-138 (ligand)
chain: [PEG4′]SGGPGPAGMKGLPGS[PEG4′]APTSSSTKKTQLQLEHLLLDLQ[Nle]ILNGIENYKNPKLTR[Nle]L[hSer][Yn3(3)]KF[Ygp(3)][Nle]PKKATELKHLQCLEEELKPLEEVL[hSer]LAQSKNFHLRPRDLISNINVIVLELKGSETTF[hSer]CEYADETATIVEFLNRWITFSQSIISTLT
modifications: bridge (positions not given here); not fully specified (bridges); numbers in words are those of the source; also: Cys58-Cys105 disulfide expected from oxidative folding

These binders were tested against T1, IL-2 receptor βγ complex (human, UniProt P14784 27-551; P31785 23-369) (assay: cell-based or functional assay).
T1 sequence (looked up) 1: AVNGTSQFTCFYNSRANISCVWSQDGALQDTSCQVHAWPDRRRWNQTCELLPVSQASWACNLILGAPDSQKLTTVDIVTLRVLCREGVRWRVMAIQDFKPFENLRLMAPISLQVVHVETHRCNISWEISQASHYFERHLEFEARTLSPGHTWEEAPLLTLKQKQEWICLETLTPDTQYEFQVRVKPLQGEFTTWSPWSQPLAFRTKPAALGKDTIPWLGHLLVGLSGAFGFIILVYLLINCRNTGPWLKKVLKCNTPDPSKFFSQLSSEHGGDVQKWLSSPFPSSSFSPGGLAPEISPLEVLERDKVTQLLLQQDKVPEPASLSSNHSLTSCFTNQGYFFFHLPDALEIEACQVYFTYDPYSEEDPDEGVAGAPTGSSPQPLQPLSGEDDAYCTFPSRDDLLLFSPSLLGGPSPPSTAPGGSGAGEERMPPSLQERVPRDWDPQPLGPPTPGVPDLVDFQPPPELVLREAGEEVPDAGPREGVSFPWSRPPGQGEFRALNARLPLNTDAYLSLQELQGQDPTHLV
T1 sequence (looked up) 2: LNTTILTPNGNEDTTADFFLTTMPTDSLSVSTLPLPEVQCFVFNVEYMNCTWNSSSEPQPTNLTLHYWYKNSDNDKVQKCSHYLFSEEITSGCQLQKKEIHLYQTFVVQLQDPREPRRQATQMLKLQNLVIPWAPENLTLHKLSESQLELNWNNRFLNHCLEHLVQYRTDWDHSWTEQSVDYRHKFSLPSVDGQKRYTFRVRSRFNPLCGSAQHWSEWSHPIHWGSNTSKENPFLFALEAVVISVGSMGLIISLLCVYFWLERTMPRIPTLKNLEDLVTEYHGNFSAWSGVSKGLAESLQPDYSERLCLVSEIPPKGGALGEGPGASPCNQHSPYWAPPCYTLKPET

In order of falling “Average EC50, pSTAT5 Assay in NK cells” value:
1. B1  53.9 nM
2. B3  38.1 nM
3. B4  0.981 nM
4. B2  0.379 nM

Biological target: T1, IL-2 receptor βγ complex
Assay: cell-based or functional assay
Remark: another data set of the same source

In order of falling “Average EC50, pSTAT5 Assay (T cells)” value:
1. B1  144 nM
2. B7  128 nM
3. B9  110 nM
4. B6  97.9 nM
5. B3  94.7 nM
6. B8  63.4 nM
7. B4  6.3 nM
8. B5  3.26 nM
9. B2  1.73 nM

The binders below were run against T2, Avi-tag Fc with human IL-2R beta and IL-2R gamma attached (Acrobiosystems ACRB-ILG-H82F3-25UG) (human, UniProt P14784 27-239; P31785 23-262) (assay: BLI (Octet R8), receptor on SAX2 sensor).
T2 construct: Bought; attached to the SAX2 biosensor; also called CD122 CD132; IL-2R βγ; not shown: Fc and Avi-tag
T2 sequence (looked up) 1: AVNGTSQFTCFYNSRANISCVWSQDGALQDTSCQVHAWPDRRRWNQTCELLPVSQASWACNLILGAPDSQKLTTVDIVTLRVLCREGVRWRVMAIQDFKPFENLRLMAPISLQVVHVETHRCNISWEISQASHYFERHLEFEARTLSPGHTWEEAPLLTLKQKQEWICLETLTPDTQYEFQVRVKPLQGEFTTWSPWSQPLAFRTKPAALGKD
T2 sequence (looked up) 2: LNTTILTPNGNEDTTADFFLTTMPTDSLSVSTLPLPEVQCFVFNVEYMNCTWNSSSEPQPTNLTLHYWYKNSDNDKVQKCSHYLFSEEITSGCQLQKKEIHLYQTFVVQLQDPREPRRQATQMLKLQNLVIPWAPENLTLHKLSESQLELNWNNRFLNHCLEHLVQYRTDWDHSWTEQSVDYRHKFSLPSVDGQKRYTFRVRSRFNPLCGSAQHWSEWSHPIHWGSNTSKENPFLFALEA
Protocol: (§1) Bilayer interferometry (BLI) assays were used to measure the binding constants between activatable IL-2 polypeptides (and activated versions thereof) to IL-2 receptor subunits or receptor complexes. BLI assays were conducted on an Octet® R8 instrument. Assay plates were 96 well, polypropylene, F-bottom (chimney well), black microplates (Greiner Bio-one, Cat. No: 655209). The biosensors were Octet® SAX2 (Sartorius, Cat. No: 18-5136). The assay buffer was 1X Kinetic Buffer (Sartorius, Cat. no: 18-5136) or Phosphate Buffered Saline (PBS) that contained 0.02% (v: v) Tween 20 (Polysorbate 20) and 0.1% (w/v) bovine serum albumin (BSA). The sensor was regenerated between measurements in 10 mM glycine pH 2.7 buffer.
(§2) Sensor attached receptors were either recombinant human IL-2 receptor beta containing a His-tag and Avi-tag™ (R&D Systems™) or an Avi-tag™ Fc with human IL-2R beta and IL-2R gamma attached (Acrobiosystems Cat. no: ACRB-ILG-H₈₂F3-25UG). Receptors were reconstituted from lyophilized powder to 500 μg/ml in PBS. Analytes were diluted in Kinetic buffer to 300 nM, then serially diluted to lower concentrations.

In order of rising Kd:
1. B11  12.3 nM
2. B10  12.6 nM

In order of rising koff:
1. B11  0.00284 s⁻¹
2. B10  0.00498 s⁻¹

In order of falling kon:
1. B10  396000 M⁻¹ s⁻¹
2. B11  232000 M⁻¹ s⁻¹

These binders were tested against T3, recombinant human IL-2 receptor beta containing a His-tag and Avi-tag (human, UniProt P14784 27-239) (assay: BLI (Octet R8), receptor on SAX2 sensor).
T3 construct: Bought; attached to the SAX2 biosensor; also called CD122; IL-2R β; not shown: His-tag and Avi-tag
T3 sequence (looked up): T2 sequence (looked up) 1
Protocol: as §1, §2

In order of rising Kd:
1. B10  8.44 nM
2. B11  11.7 nM

In order of falling koff:
1. B11  0.0105 s⁻¹
2. B10  0.00767 s⁻¹

In order of rising kon:
1. B11  898000 M⁻¹ s⁻¹
2. B10  909000 M⁻¹ s⁻¹
